Data reported in patent US20130266574A1 (Regeneron, published 2013).

Experiments:
[1] = target: T1, cynomolgus monkey ANGPTL4 N-terminal region (amino acid residues 1-130 of SEQ ID NO:490) with a C-terminal … (cynomolgus monkey (Macaca fascicularis), UniProt Q9BY76 26-130 (human entry)); test: SPR (Biacore), 25° C., pH 5.75, antigen amino-coupled 1,028 RU; Full mAb, not Fab; pH 5.75
T1 construct: also called MfANGPTL4(1-130)-His
T1 chain: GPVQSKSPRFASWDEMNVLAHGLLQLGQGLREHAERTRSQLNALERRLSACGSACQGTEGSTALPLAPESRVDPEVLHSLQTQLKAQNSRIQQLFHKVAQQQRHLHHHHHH
Description: (§1) Kinetic analysis was performed to measure kₐ and kd, and KD values and half-life of antigen/antibody complex dissociation were calculated. The results are shown in Table 4 (H1H268P) and Table 5 (H1H284P).

[2] = target: T2, N-terminally biotinylated hANGPTL3 peptide (R36-I68 of SEQ ID NO:485) (human, N-terminal biotin); test: SPR (Biacore), antibody captured on anti-human Fc, peptide injected
T2 construct: also called hANGPTL3-Nterm biotin
T2 peptide: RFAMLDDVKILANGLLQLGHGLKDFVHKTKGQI
Description: (§2) Further, the binding affinities of H1H268P and H1H284P for various ANGPTL3 and ANGPTL4 peptides were also determined by BIACORE™ system. Briefly, H1H268P (1348±11 RU) and H1H284P (868±13 RU) were captured over anti-human Fc surface and various concentrations (62.5 nM-500 nM) of the hANGPTL3 and hANGPTL4 peptides were injected. […] Kinetic analysis was performed to measure kₐ and kd, and KD values and half-life of antigen/antibody complex dissociation were calculated. NB: No binding under the experimental conditions described.

[3] = target: T3, hANGPTL3 peptide (R36-I68 of SEQ ID NO:485) (human); test: as above
T3 peptide: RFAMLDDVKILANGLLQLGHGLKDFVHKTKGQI
Description: as §2

[4] = target: T4, N-terminally biotinylated hANGPTL4 peptide (R34-L66 of SEQ ID NO:476) (human, N-terminal biotin); test: as above
T4 construct: also called hANGPTL4-Nterm biotin
T4 peptide: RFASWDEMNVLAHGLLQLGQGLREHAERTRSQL
Description: as §2

[5] = target: T5, hANGPTL4 peptide (R34-L66 of SEQ ID NO:476) (human); test: as above
T5 peptide: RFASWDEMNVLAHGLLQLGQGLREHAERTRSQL
Description: as §2

[6] = target: T6, amino acid residues 26-148 of human ANGPTL4 fused in-line to mouse IgG2a (hANGPTL4-mFc) (human); test: SPR (Biacore T100), hANGPTL4-mFc captured by anti-mouse IgG, antibody injected, 37° C.
T6 construct: contains the N-terminal coiled-coil region
T6 chain: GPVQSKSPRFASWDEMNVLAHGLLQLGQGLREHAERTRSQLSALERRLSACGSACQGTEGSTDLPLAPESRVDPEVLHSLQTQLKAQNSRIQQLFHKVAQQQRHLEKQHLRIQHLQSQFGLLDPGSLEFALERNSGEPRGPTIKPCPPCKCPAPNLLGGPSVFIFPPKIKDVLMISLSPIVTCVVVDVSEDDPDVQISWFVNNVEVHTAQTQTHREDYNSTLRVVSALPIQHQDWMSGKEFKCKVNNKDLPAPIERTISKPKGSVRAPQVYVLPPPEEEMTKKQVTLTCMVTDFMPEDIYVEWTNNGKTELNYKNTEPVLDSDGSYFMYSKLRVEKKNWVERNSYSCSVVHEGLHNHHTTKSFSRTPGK
Description: Antigen-antibody binding and dissociation were monitored in real time at 25° C. and 37° C. Kinetic analysis was performed to calculate KD and half-life of antigen/antibody complex dissociation.

[7] = target: T7, full-length hANGPTL4 (amino acid residues 26-406 of SEQ ID NO:476) with a C-terminal hexa-histidine tag (human, UniProt Q9BY76 26-406); test: SPR (Biacore), 25° C., pH 7.2, antigen amino-coupled 450 RU
T7 construct: also called hANGPTL4-His; hANGPTL4(26-406)-His
T7 sequence: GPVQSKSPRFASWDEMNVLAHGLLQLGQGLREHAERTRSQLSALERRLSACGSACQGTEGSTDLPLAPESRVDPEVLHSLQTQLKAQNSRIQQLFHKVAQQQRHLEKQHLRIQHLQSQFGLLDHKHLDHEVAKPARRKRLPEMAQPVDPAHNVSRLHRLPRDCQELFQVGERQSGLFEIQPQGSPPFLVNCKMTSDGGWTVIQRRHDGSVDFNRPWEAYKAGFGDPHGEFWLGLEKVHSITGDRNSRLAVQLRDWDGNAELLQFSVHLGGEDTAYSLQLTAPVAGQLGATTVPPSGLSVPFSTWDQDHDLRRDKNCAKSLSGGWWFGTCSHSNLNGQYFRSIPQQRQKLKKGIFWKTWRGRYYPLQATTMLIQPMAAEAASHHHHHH
Description: as §1

[8] = target: T6, amino acid residues 26-148 of human …; test: SPR (Biacore), 25° C., pH 5.75, antigen captured by anti-mFc
Description: as §1

[9] = target: T7, full-length hANGPTL4 (amino acid …); test: cell-based or functional assay
[10] = target: T6, amino acid residues 26-148 of human …; test: cell-based or functional assay

B1: H1H268P (antibody, V domains shown)
VH: QVQLQESGAGLLKPSETLSLTCTVYGGSFSIHHWTWIRHPPGKGLEWIGEINHRGSTNYNPSLKSRVTISIDTSKNQFSLKLSAVTAADTAVYYCARGLRFLDWLSSYFDYWGQGTLVTVSS
VL: DIQMTQSPSSLSASVGDRVTITCRASQGISDYLAWYQQKPGKVPNLLIYAASALQSGVPSRFSGSGSGTDFTLTISSLQPEDVATYYCQNYNTAPLTFGGGTKVEIK
notes: also called entire H1H268 mAb; Full mAb
Kd [1]: 0.0772 nM
koff [1]: 8.24e-05 s⁻¹
kon [1]: 1.07e+06 M⁻¹ s⁻¹
binding result [2]: no binding (tested: 62.5 nM-500 nM)
binding result [3]: no binding (tested: 62.5 nM-500 nM)
Kd [4]: 64.8 nM
koff [4]: 0.000294 s⁻¹
kon [4]: 4530 M⁻¹ s⁻¹
t1/2 [4]: 0.65 h
Kd [5]: 56.3 nM
koff [5]: 0.000365 s⁻¹
kon [5]: 6490 M⁻¹ s⁻¹
t1/2 [5]: 0.533 h
Kd [6]: 0.389 nM
t1/2 [6]: 0.95 h
Kd [7]: 0.408 nM
koff [7]: 0.0002 s⁻¹
kon [7]: 489000 M⁻¹ s⁻¹
t1/2 [7]: 0.967 h
Kd [8]: 0.22 nM
koff [8]: 0.000138 s⁻¹
kon [8]: 628000 M⁻¹ s⁻¹
t1/2 [8]: 1.4 h
% Inhibition of hANGPTL4 Activity (LPL lipase test), hANGPTL4-His (10 nM) [9]: 80%
% Inhibition of hANGPTL4 Activity (LPL lipase test), hANGPTL4-mFc (2 nM) [10]: 76%

B2: H1H284P (antibody, V domains shown)
VH: QVQLVESGGGVVQPGRSLRLSCAASGFTFSSYGMHWVRQAPGKGLEWMAVISFDGGNKNNADSVKGRFTISRDNSKNTLYLQMNSLRAEDTAVYYCAKEGDRSGHPYFYYYGLDVWGQGTTVTVS
VL: DIQLTQSPSFLSASVGDRVTITCWASQGISSYLAWYQQKPGKAPKLLIYAASTLQSGVPSRFSGSGSETEFTLTISSLQPEDFATYYCQQLHSYPLTFGGGTKVEIK
notes: also called entire H1H284 mAb; Full mAb
Kd [1]: 0.0543 nM
binding result [2]: no binding (tested: 62.5 nM-500 nM)
binding result [3]: no binding (tested: 62.5 nM-500 nM)
binding result [4]: no binding (tested: 500 nM)
binding result [5]: no binding (tested: 500 nM)
Kd [6]: 0.349 nM
t1/2 [6]: 1.35 h
Kd [7]: 0.105 nM
koff [7]: 8.85e-05 s⁻¹
kon [7]: 850000 M⁻¹ s⁻¹
t1/2 [7]: 2.17 h
Kd [8]: 0.0819 nM
koff [8]: 8.91e-05 s⁻¹
kon [8]: 1.09e+06 M⁻¹ s⁻¹
t1/2 [8]: 2.17 h
% Inhibition of hANGPTL4 Activity (LPL lipase test), hANGPTL4-His (10 nM) [9]: 90%
% Inhibition of hANGPTL4 Activity (LPL lipase test), hANGPTL4-mFc (2 nM) [10]: 82%
